Results on 40 variants are retold here after the MegaScale stability set (Tsuboyama et al. 2023).

Sequences and labels used below:
B1: 2M8U (parent)
chain: TKAQVIEAFKVFDRDGNGYVTVDYLRKVLNELGDMMPADEIEEMIYEADPQNSGYVQYETFVGMLFL

In the data set the parent is B1. Nature of the data set: folding stability dG (cDNA display proteolysis); higher = more stable. To be noted: PBS, room temperature.
For TKAQVIEAFKVFDRDGNGYVTVDYLRKVLNELGDMMPADQIEEMIYEADPQNSGYVQYETFVGMLFL [E40Q], the “folding stability dG” value was found to be 3.64 kcal/mol. The value for TKAQLIEAFKVFDRDGNGYVTVDYLRKVLNELGDMMPADEIEEMIYEADPQNSGYVQYETFVGMLFL [V5L] was 3.95 kcal/mol; that for TKAQWIEAFKVFDRDGNGYVTVDYLRKVLNELGDMMPADEIEEMIYEADPQNSGYVQYETFVGMLFL [V5W] was 4.09 kcal/mol; that for TKAQVIDAFKVFDRDGNGYVTVDYLRKVLNELGDMMPADEIEEMIYEADPQNSGYVQYETFVGMLFL [E7D] was 3.41 kcal/mol.

For the variant TKAQVIEAFKVFDRDGNGYVTVDYLRKVLNELGDMMPADEIEEMIYEADPQNSGYVKYETFVGMLFL [Q57K], the “folding stability dG” value is 3.2 kcal/mol. The value for TKAQVIEAGKVFDRDGNGYVTVDYLRKVLNELGDMMPADEIEEMIYEADPQNSGYVQYETFVGMLFL [F9G] was 2.1 kcal/mol; that for TKAQVIEAFKVFDRDGNGYVTVDYLRKVLNELGDMMPADEIEEMIYEADPQNSGYVQYETFVTMLFL [G63T] was 3.77 kcal/mol; that for TKAQVIEAFKVFDRDGNGYVTVDYLRKVLNELGDMMPADEIEEMIYEADPQNSGYVQYETFVNMLFL [G63N] was 3.97 kcal/mol. On to TKAQVIEAFKVFDRDGNGYVTVDYLRKVLLELGDMMPADEIEEMIYEADPQNSGYVQYETFVGMLFL [N30L], for which the “folding stability dG” value came to 3.64 kcal/mol. The value for TKAQVIEAFKVFDRDGNGYVTVDYLRKVLEELGDMMPADEIEEMIYEADPQNSGYVQYETFVGMLFL [N30E] was 3.4 kcal/mol; that for TKAQVIEAFKVFDRDGNGYVTVDYLRKVLNELGDMMPADEIEDMIYEADPQNSGYVQYETFVGMLFL [E43D] was 3.6 kcal/mol; that for TKAQVIEAFKVFDRDGNGYVTVDYLRTVLNELGDMMPADEIEEMIYEADPQNSGYVQYETFVGMLFL [K27T] was 3.26 kcal/mol. The value for TKAQVIEAFKVFDRDGNGYVTVDYLRGVLNELGDMMPADEIEEMIYEADPQNSGYVQYETFVGMLFL [K27G] was 2.92 kcal/mol; that for TKAQVIEAFKVFDRDGNGYVTVDYLRDVLNELGDMMPADEIEEMIYEADPQNSGYVQYETFVGMLFL [K27D] was 2.89 kcal/mol; that for TKAQVIEAFKVFDRDGNGYVTVDYLREVLNELGDMMPADEIEEMIYEADPQNSGYVQYETFVGMLFL [K27E] was 3.28 kcal/mol. As for TKGQVIEAFKVFDRDGNGYVTVDYLRKVLNELGDMMPADEIEEMIYEADPQNSGYVQYETFVGMLFL [A3G], the figure is 2.93 kcal/mol. In the case of TKKQVIEAFKVFDRDGNGYVTVDYLRKVLNELGDMMPADEIEEMIYEADPQNSGYVQYETFVGMLFL [A3K], the “folding stability dG” value is 3.31 kcal/mol. As for TKAQVIEAFKVFDRDGNGYVTVDYLAKVLNELGDMMPADEIEEMIYEADPQNSGYVQYETFVGMLFL [R26A], the figure is 2.49 kcal/mol; as for TKAQVIEAFKVFDRDGNGYVTVDYLCKVLNELGDMMPADEIEEMIYEADPQNSGYVQYETFVGMLFL [R26C], 2.88 kcal/mol; as for TKAQVIEAFKVFDRDGNGYVTVDYLRKVLNELGDMMPADEIEEMIYEADPQNSGYIQYETFVGMLFL [V56I], 3.69 kcal/mol.

For the variant TKAQVIEAFKVFDRWGNGYVTVDYLRKVLNELGDMMPADEIEEMIYEADPQNSGYVQYETFVGMLFL [D15W], the “folding stability dG” value was determined as 2.76 kcal/mol. As for TKAQVIEAFKVFDREGNGYVTVDYLRKVLNELGDMMPADEIEEMIYEADPQNSGYVQYETFVGMLFL [D15E], the figure is 3.55 kcal/mol; as for TKAQVIEAFKVFDRDGNGYVTVDYLRKVLNELGDMMPADEIEEMIYEAIPQNSGYVQYETFVGMLFL [D49I], 2.49 kcal/mol; as for TKAQVIEAFKVFDRDGNGYVTVDYLRKVLNELGDMMPADEIEEMIYEACPQNSGYVQYETFVGMLFL [D49C], 2.7 kcal/mol. As for TKAQVIEAFKVFDRDGNGYVTVDYLRKVLNELGDMMPADEIEEMIYEANPQNSGYVQYETFVGMLFL [D49N], the figure is 2.75 kcal/mol; as for TKAQVIEAFKVFDRDGNGYVTVDYLRKVLNELGDMMPADEIEEMIYEADPQNSGYVQYETFVGMLRL [F66R], 2.78 kcal/mol; as for TAAQVIEAFKVFDRDGNGYVTVDYLRKVLNELGDMMPADEIEEMIYEADPQNSGYVQYETFVGMLFL [K2A], 3.47 kcal/mol. As for TKAQVIEAFKVFDRDGNGYVTVDYLRKVLNELGDMMPADEIEEMIYEADPFNSGYVQYETFVGMLFL [Q51F], the figure is 3.58 kcal/mol. As to TKAQVIEAFKWFDRDGNGYVTVDYLRKVLNELGDMMPADEIEEMIYEADPQNSGYVQYETFVGMLFL [V11W], the “folding stability dG” value came out at 3.05 kcal/mol. The value for TKAQVIEAFKVFDRDGNGYVTVDWLRKVLNELGDMMPADEIEEMIYEADPQNSGYVQYETFVGMLFL [Y24W] was 3.24 kcal/mol; that for TKAQVIEAFKVFDRDGNGYVTVDYLRKVLNELGDMMPADEIEEMIYEADPQNQGYVQYETFVGMLFL [S53Q] was 3.28 kcal/mol; that for TKAQVIEAFKVFDRDGNGYVTVDYLRKVLNELGDMMPADEIEEMIYEADPQNWGYVQYETFVGMLFL [S53W] was 3.22 kcal/mol. With TKAQVIEAFKVFDRDGNGYVTVDYLRKVLNELGDMMPADEIEEMIYEADPQNSGYVQYEPFVGMLFL [T60P], the “folding stability dG” value amounted to 3.52 kcal/mol.

As to TKAQVIEAFKVFDRDGNGYVTVDYLRKVLNELGDMMPADEIEEMIYEADPQNSGYVQYEKFVGMLFL [T60K], the “folding stability dG” value amounted to 3.72 kcal/mol.

TKAQVIEAFKVFDRDGNGYVTVDYLRKVLNELGDMMPADEIEEMIYEADPQNSGYVQYEIFVGMLFL [T60I]: the “folding stability dG” value stood at 3.58 kcal/mol. As for TKAQVIEAFKVFDRDGNGYVTVDYLRKVLNELGDMMPADEIEEMIYEADPQNSGYVQYELFVGMLFL [T60L], the figure is 3.72 kcal/mol; as for TKAQVIEAFKVFDRDGNGYVTVDYLRKVLNELGDMMPADEIEEMIYEADPQNSGYVQYESFVGMLFL [T60S], 3.6 kcal/mol. The value for TKAQVIEAFKVFDRDGNGYVTVDYLRKVLNELGDMMPADEIEEMIYEADPQNSGYVQYETGVGMLFL [F61G] was 0.903 kcal/mol. As for TKAQVIEAFKVFDRDGNGYVTVDYLRKVLNELGDMMPADEIEEMIYEADPQNSGYVQYETAVGMLFL [F61A], the figure is 2.41 kcal/mol. Consider TKAQVIEAFKVFDRDGNGYVTVDYLRKVLNELGDMMPADEIEEMIYEADPQNSGYVQYETHVGMLFL [F61H], for which the “folding stability dG” value was 1.1 kcal/mol.
